From PMC9601805, “Characterization of the Escherichia coli pyridoxal 5′‐phosphate homeostasis protein (YggS): Role of lysine residues in PLP binding and protein stability” (Protein Science : A Publication of the Protein Society, 2022)

B1: ΔK233/K234: E. coli YggS variant lacking the last two C-terminal residues K233 and K234 (protein)
chain: MNDIAHNLAQVRDKISAAATRCGRSPEEITLLAVSKTKPASAIAEAIDAGQRQFGENYVQEGVDKIRHFQELGVTGLEWHFIGPLQSNKSRLVAEHFDWCHTIDRLRIATRLNDQRPAELPPLNVLIQINISDENSKSGIQLAELDELAAAVAELPRLRLRGLMAIPAPESEYVRQFEVARQMAVAFAGLKTRYPHIDTLSLGMSDDMEAAIAAGSTMVRIGTAIFGARDYS
modifications: left off: His-tag, N-terminal, state not stated
B2: K36A/K38A/K233A/K234A: E. coli YggS triple lysine variant (protein)
chain: MNDIAHNLAQVRDKISAAATRCGRSPEEITLLAVSATAPASAIAEAIDAGQRQFGENYVQEGVDKIRHFQELGVTGLEWHFIGPLQSNKSRLVAEHFDWCHTIDRLRIATRLNDQRPAELPPLNVLIQINISDENSKSGIQLAELDELAAAVAELPRLRLRGLMAIPAPESEYVRQFEVARQMAVAFAGLKTRYPHIDTLSLGMSDDMEAAIAAGSTMVRIGTAIFGARDYSAA
modifications: left off: His-tag, C-terminal, state not stated
notes: E. coli YggS triple lysine variant
B3: K36A/K38A/K137A: E. coli YggS triple lysine variant (protein)
chain: MNDIAHNLAQVRDKISAAATRCGRSPEEITLLAVSATAPASAIAEAIDAGQRQFGENYVQEGVDKIRHFQELGVTGLEWHFIGPLQSNKSRLVAEHFDWCHTIDRLRIATRLNDQRPAELPPLNVLIQINISDENSASGIQLAELDELAAAVAELPRLRLRGLMAIPAPESEYVRQFEVARQMAVAFAGLKTRYPHIDTLSLGMSDDMEAAIAAGSTMVRIGTAIFGARDYSKK
modifications: left off: His-tag, C-terminal, state not stated
notes: as for B2
B4: K36A/K137A/K233A/K234A: E. coli YggS triple lysine variant (protein)
chain: MNDIAHNLAQVRDKISAAATRCGRSPEEITLLAVSATKPASAIAEAIDAGQRQFGENYVQEGVDKIRHFQELGVTGLEWHFIGPLQSNKSRLVAEHFDWCHTIDRLRIATRLNDQRPAELPPLNVLIQINISDENSASGIQLAELDELAAAVAELPRLRLRGLMAIPAPESEYVRQFEVARQMAVAFAGLKTRYPHIDTLSLGMSDDMEAAIAAGSTMVRIGTAIFGARDYSAA
modifications: left off: His-tag, C-terminal, state not stated
notes: as for B2
B5: K36A/K38A/K137A/K233A/K234A: E. coli YggS quadruple lysine variant (protein)
chain: MNDIAHNLAQVRDKISAAATRCGRSPEEITLLAVSATAPASAIAEAIDAGQRQFGENYVQEGVDKIRHFQELGVTGLEWHFIGPLQSNKSRLVAEHFDWCHTIDRLRIATRLNDQRPAELPPLNVLIQINISDENSASGIQLAELDELAAAVAELPRLRLRGLMAIPAPESEYVRQFEVARQMAVAFAGLKTRYPHIDTLSLGMSDDMEAAIAAGSTMVRIGTAIFGARDYSAA
modifications: left off: His-tag, C-terminal, state not stated
notes: E. coli YggS quadruple lysine variant

Experiments:
apo‐YggS = biological target: T1, apo‐YggS (Escherichia coli, UniProt P67080); experiment: biochemical; assay type: binding; conditions: WT apo-YggS
T1 construct: made in house; host or cells: E. coli HMS174(DE3)
T1 sequence (P67080 whole entry): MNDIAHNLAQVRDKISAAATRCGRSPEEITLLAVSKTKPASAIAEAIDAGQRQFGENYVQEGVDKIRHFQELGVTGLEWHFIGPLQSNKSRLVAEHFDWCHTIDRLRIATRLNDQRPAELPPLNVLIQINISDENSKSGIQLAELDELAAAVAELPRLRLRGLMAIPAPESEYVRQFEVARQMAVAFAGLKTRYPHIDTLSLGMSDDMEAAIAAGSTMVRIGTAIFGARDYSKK
Description: Equilibrium binding analyses were carried out by measuring the decrease of protein intrinsic fluorescence observed upon the addition of increasing PLP concentrations to a fixed concentration of apo‐YggS (Figure 1b).
Dissociation constants were calculated from saturation curves obtained measuring the protein fluorescence emission intensity as a function of increasing PLP concentration. […] Fluorescence emission spectra were recorded from 310 to 450 nm upon excitation at 280 nm. Excitation and emission slits were set at 3 and 5 nm, respectively.

E. coli ΔyggS = experiment: 4dPN sensitivity assay and complementation by YggS variants in trans; assay type: cell-based, Escherichia coli; conditions: 20 μl of 25 mM 4dPN in central well, M9 minimal medium with 1 μM PN
Description: Bacteria were grown in Luria‐Bertani (LB; Tryptone 10 g L^− 1, Yeast extract 5 g L^− 1, NaCl 10 g L^− 1) or M9 minimal medium (Cold Spring Harbor Protocols, Cold Spring Harbor, NY) at 37°C, unless otherwise specified. Growth media were solidified with agar (16 g L^− 1; Fisher Scientific) for the preparation of plates. 4dPN toxicity assays were performed on thin (20 ml) M9 minimal medium plates containing 0.4% glucose (carbon source), ampicillin (100 μg ml^−1), 1 μM PN, and 0.02% or 0.2% arabinose when appropriate.
Wild‐type yggS was amplified by PCR with primers DH596 and DH598 from E. coli BW25113 and cloned in pBAD24 using restriction sites SphI and NcoI to give pBY291.3. The pBY291.3 plasmid and its derivatives were then used as templates with the NEB Q5 Site‐Directed Mutagenesis Kit and the primer pairs indicated in Table S4 to introduce site‐directed residue mutant constructs. All constructs were verified by sequencing and transformed into E. coli wild‐type (BW25113) and ΔyggS (VDC6594) electrocompetent cells for use in physiological studies. Plasmid transformations were performed following standard procedures and protein expression from each construct was confirmed by SDS‐PAGE and western blot analysis.
Three isolated colonies of each strain were inoculated into 5 ml LB Amp 200 μg ml^− 1 and incubated at 37°C and 200 rpm overnight. Overnight cultures were diluted 1:500 into 5 ml fresh LB Amp 200 μg ml^− 1 ± 0.02% or 0.2% arabinose and grown at 37°C, shaking. Once cultures reached midlog growth (OD600 of 0.4–0.7) samples were taken from each culture for western blot analysis (below) then cells were again incubated until stationary growth was reached (~6 hr). Cells were harvested by centrifugation then washed twice with and resuspended in 1x PBS. Optical density of washed cells was measured at 600 nm in 1 ml cuvettes (Fisher Scientific) using a BioSpec‐mini DNA/RNA/Protein analyzer (Shimadzu Biotech) and each strain was normalized to an OD600 of 0.006 in 3 ml 1x PBS. […]

[1] = PLP binding equilibrium of YggS WT and variant forms, intrinsic fluorescence change; conditions: E. coli YggS form 0.1 μM, 50 mM NaHEPES pH 7.6, 25°C, excitation 280 nm; mean ± SEM; read-out: K D (nM) of the PLP binding equilibrium
Description: Analyses took advantage of YggS intrinsic fluorescence decrease observed upon binding of PLP. Dissociation constants were calculated from saturation curves obtained measuring the protein fluorescence emission intensity as a function of increasing PLP concentration. Fluorescence emission measurements were carried out at 25°C, in 50 mM NaHEPES buffer at pH 7.6 with a FluoroMax‐3 Jobin Yvon Horiba spectrofluorometer, using a 1‐cm path length quartz cuvette. All analyzed YggS forms were used at a final subunit concentration of 0.1 μM. Fluorescence emission spectra were recorded from 310 to 450 nm upon excitation at 280 nm. Excitation and emission slits were set at 3 and 5 nm, respectively. Emission fluorescence values between 330 and 340 nm were averaged and analyzed using the following quadratic equation to obtain K D value: (1) Frel=Finf−F0×PLP+[YggS]+KD−PLP+[YggS]+KD^2−4[YggS]PLP/2/[YggS]+F0

[2] = Differential scanning fluorimetry (DSF), apparent Tm of YggS forms; assay type: physicochemical; conditions: for T m (°C) Apo +2 μM PLP: 2 μM protein + 2 μM (equimolar) PLP; for T m (°C) Apo + 300 μM PLP: 2 μM protein + 300 μM PLP; for T m (°C) Apo: apo-form, 2 μM protein, no PLP
Description: Differential scanning fluorimetry (DSF) assays were performed on a Real Time PCR Instrument (CFX Connect Real Time PCR system, Bio‐Rad, Hercules, CA). In a typical experiment, 2 μM WT and variant apo‐YggS forms in 50 mM NaHEPES, pH 7.5, 50 mM NaCl, and Sypro Orange (5x, Thermo Scientific) were mixed with various ligands (total volume of 25 μl) in a 96‐well PCR plate. Fluorescence was measured from 25°C to 95°C in 0.4°C/30 s steps (excitation 450–490 nm; detection 560–580 nm). All samples were run in triplicate. Denaturation profiles were analyzed as described in Nardella et al.[40]

[3] = Covalent (Schiff base) PLP binding judged by absorption spectra; conditions: ~416–420 nm band
Description: Our strategy was to start from the K36A variant and gradually add further variations so as to obtain all possible combinations of double, triple, and quadruple variants. Variations of the last two residues at the C‐terminal end of the protein, K233 and K234, were always introduced together and are therefore considered as a single K233A/K234A variation.
All spectroscopic measurements were carried out at 20°C in 20 mM NaHEPES pH 7.5. UV–visible spectra were recorded with a Hewlett‐Packard 8453 diode‐array spectrophotometer. Far‐UV (190–250 nm) and Near‐UV–visible (250–500 nm) CD spectra were measured with a Jasco 710 spectropolarimeter equipped with a DP 520 processor using 0.1‐cm (far‐UV) or 1‐cm path length quartz cuvettes and results were expressed as ellipticity [Θ]. Absorption spectra of WT and variant forms were deconvoluted into their component bands using Metzler's band‐shape analysis method.[22]

apo‐eSHMT = apo‐eSHMT (Escherichia coli, UniProt P0A825); conditions: transfer to apo-SHMT
Sequence of apo‐eSHMT (P0A825 whole entry): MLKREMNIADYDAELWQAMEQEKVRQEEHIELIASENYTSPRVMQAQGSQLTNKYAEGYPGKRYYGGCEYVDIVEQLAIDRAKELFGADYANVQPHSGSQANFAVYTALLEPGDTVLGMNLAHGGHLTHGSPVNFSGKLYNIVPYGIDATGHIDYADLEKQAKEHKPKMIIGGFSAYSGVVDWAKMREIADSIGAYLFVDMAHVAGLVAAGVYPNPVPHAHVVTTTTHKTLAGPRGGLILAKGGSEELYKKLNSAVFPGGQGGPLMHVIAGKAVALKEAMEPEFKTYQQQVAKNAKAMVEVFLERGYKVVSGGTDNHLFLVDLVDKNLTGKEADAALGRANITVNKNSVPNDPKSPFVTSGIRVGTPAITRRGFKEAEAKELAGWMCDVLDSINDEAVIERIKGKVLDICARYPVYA
Description: We set up a novel in vitro discontinuous assay in which PLP transfer from holo‐YggS to the apo‐form of eSHMT could be followed (see Section 4 for details). In this assay, the increase in SHMT activity is measured as PLP dissociates from holo‐YggS and binds to apo‐SHMT, forming the catalytically active holo‐SHMT. […] The binding kinetics of free PLP to either apo‐YggS or apo‐SHMT was measured by manually mixing 20 μM free PLP with 20 μM of protein, observing the formation of the internal aldimine at 420 nm.
WT Holo‐YggS (20 μM with respect to PLP) was mixed with 20 μM apo‐eSHMT in 50 mM NaHEPES buffer at pH 7.6.

Row | Molecule | change in fluorescence emission attributable to binding (apo‐YggS) | 4dPN sensitivity (ring of growth inhibition) (E. coli ΔyggS) | Kd [1] | T m (°C) Apo +2 μM PLP [2] | T m (°C) Apo + 300 μM PLP [2] | T m (°C) Apo [2] | capability to bind PLP covalently as a Schiff base [3] | PLP transfer kinetics compared with WT YggS (apo‐eSHMT)
1 | Cc1ncc(COP(=O)(O)O)c(C)c1O [4dPNP] | could only be detected with PL and PNP | – | – | – | – | – | – | –
2 | Cc1ncc(CO)c(C)c1O [4dPN, 4‐deoxypyridoxine, reference compound] | could only be detected with PL and PNP | clear 4dPN sensitivity phenotype | – | – | – | – | – | –
3 | Cc1ncc(CO)c(CO)c1O [PN, pyridoxine] | could only be detected with PL and PNP | – | – | – | – | – | – | –
4 | B1 | – | – | 2.8 ± 0.7 nM | 73.1 ± 0.3 °C | 84.0 ± 0.4 °C | 61.4 ± 0.8 °C | able to bind PLP as a Schiff base | –
5 | B2 | – | – | – | 68.9 ± 0.1 °C | 69.6 ± 0.1 °C | 68.8 ± 0.1 °C | lost the capability to bind PLP covalently | –
6 | B3 | – | – | 43 ± 19 nM | 69.4 ± 0.1 °C | 75.2 ± 1.2 °C | 68.9 ± 0.2 °C | – | faster and much more extensive transfer of PLP
7 | B4 | – | – | – | 64.7 ± 0.1 °C | 66.0 ± 0.1 °C | 64.6 ± 0.1 °C | – | –
8 | B5 | – | – | – | 68.8 ± 0.1 °C | 69.1 ± 0.3 °C | 68.7 ± 0.1 °C | lost the capability to bind PLP covalently | –
